Two substances from patent publication US20150232576A1 can be followed below.

The target of assay [1] is Phosphorylated His-p38 (p38 MAP kinase) (UniProt Q16539). The experiment in a line: BLI, immobilised p38, k2/k1. For orientation: In BLI a coated tip is dipped into the sample, and binding shifts an interference pattern.
Assay [2] shares this target. The experiment in a line: optical biosensing (BLI), summary statement.
Assay [3] has the same target. Kind of assay: refers to the biosensor experiments described above.
Assay [4] has the same target. Kind of assay: BLI, biotinylated p38 on streptavidin sensors, 696 nM eNOS analyte.
The target is the same in assay [5]. The experiment in a line: BLI, immobilised p38, eNOS analyte, two-component sequential model.
Assay [6] has the same target. The experiment in a line: BLI, immobilised p38, from the pseudo first order rate at 232 nM eNOS.
Assay [7] shares this target. The experiment in a line: BLI, biotinylated p38 on streptavidin sensors, 696 nM eNOS, 300 s dissociation in buffer.
Assay [8] has the same target. The experiment in a line: BLI, immobilised p38, 696 nM nNOS analyte, compared with eNOS.

endothelial nitric oxide synthase (eNOS), purified, unphosphorylated, sequence (P29473 whole entry): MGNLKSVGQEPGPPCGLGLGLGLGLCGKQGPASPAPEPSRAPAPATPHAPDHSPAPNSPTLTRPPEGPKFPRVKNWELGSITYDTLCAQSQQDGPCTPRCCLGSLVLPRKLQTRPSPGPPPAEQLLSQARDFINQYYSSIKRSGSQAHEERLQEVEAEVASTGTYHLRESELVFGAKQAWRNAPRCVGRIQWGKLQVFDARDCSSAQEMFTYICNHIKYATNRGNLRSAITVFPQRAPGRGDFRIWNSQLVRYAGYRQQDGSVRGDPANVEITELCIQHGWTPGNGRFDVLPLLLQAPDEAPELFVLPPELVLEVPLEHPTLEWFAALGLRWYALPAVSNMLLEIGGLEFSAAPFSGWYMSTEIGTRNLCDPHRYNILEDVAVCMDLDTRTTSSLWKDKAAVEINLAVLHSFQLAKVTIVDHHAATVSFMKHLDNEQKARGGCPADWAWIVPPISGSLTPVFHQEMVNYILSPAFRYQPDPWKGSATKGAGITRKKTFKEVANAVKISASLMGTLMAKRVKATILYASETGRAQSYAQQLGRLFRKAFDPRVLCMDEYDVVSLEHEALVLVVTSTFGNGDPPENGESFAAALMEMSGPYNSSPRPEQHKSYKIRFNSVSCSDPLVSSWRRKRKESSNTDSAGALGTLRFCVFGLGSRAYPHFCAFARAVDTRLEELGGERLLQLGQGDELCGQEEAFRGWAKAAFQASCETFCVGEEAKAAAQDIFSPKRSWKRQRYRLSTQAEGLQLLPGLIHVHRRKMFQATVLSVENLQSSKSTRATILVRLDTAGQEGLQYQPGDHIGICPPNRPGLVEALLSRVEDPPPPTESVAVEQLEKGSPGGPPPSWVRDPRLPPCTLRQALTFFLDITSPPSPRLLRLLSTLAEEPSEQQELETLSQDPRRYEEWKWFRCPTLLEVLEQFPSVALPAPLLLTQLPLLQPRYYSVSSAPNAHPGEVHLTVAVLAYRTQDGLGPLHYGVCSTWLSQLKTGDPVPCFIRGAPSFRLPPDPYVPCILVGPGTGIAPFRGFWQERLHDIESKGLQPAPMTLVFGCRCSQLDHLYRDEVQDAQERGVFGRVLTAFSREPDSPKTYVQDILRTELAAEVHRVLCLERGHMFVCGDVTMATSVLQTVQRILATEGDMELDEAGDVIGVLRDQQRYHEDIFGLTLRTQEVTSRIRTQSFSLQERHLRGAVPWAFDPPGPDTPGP

For orientation: Kd means the concentration at which binding is half-saturated. Broadly, the kon is a measure of how fast the partners come together. Higher therefore signals faster complex formation. With “endothelial nitric oxide synthase (eNOS), purified, unphosphorylated (from UniProt P29473 1-1205) (enzyme)”, in assay [1], the Kd amounted to 80 nM. In assay [2], the Kd amounted to 100 nM and the kon turned out to be 150000 M⁻¹ s⁻¹. In assay [3], this substance gave a Kd of 0.05 to 0.1 nM. In assay [4], this substance came in with a half time of the initial association component of 10 s. In assay [5], this substance displayed a k1 (pseudo first order forward rate, first step) at 26 nM eNOS of 0.0025 s⁻¹; a k1 (pseudo first order forward rate, first step) at 77 nM eNOS of 0.0008 s⁻¹; a k1 (pseudo first order forward rate, first step) at 232 nM eNOS of 0.03 s⁻¹; a k1 (pseudo first order forward rate, first step) at 696 nM eNOS of 0.1 s⁻¹. In assay [5], the k2 (reverse rate, first step) at 26 nM eNOS was 0.01 s⁻¹; the k2 (reverse rate, first step) at 77 nM eNOS was found to be 0.01 s⁻¹; the k2 (reverse rate, first step) at 232 nM eNOS turned out to be 0.01 s⁻¹; the k2 (reverse rate, first step) at 696 nM eNOS was found to be 0.01 s⁻¹. In assay [5], this substance returned a k3 (forward rate, second step) at 26 nM eNOS of 0.0002 s⁻¹; a k3 (forward rate, second step) at 77 nM eNOS of 0.006 s⁻¹; a k3 (forward rate, second step) at 232 nM eNOS of 0.0002 s⁻¹; a k3 (forward rate, second step) at 696 nM eNOS of 0.006 s⁻¹. In assay [5], the k4 (reverse rate, second step) at 26 nM eNOS worked out at 0.001 s⁻¹; the k4 (reverse rate, second step) at 77 nM eNOS came out at 0.001 s⁻¹; the k4 (reverse rate, second step) at 232 nM eNOS was 0.001 s⁻¹; the k4 (reverse rate, second step) at 696 nM eNOS was 0.001 s⁻¹. Further, the kon in assay [6] turned out to be 130000 M⁻¹ s⁻¹. This substance also came in with a percent of the rapid phase binding dissociated in buffer in assay [7] of 25%.

“neuronal nitric oxide synthase (nNOS) (from UniProt P29476 1-1429) (enzyme)” returned a fold slower binding than eNOS in assay [8] of 30 fold.
